US20210340233A1 (CRESCENDO BIOLOGICS, published 2021)

Assays:
[1] = target: T1, Human Serum Albumin (HSA) (human, UniProt P02768 25-609); assay: BLI (Octet RED384), albumin amine-coupled to AR2G biosensor, 1:1 model
T1 construct: Recombinant HSA from Sigma A9731 is named only for immunisation
Protocol: (§1) Binding studies with human, cyno and mouse serum albumin were carried out using the FortéBio OCTET RED384 instrument. Serum albumin (HSA, CSA, MSA) were coupled to AR2G biosensors by amine coupling using the amine reagent coupling kit (2nd generation, FortéBio). Briefly AR2G biosensors were rehydrated in water and then activated using EDC/sNHS reagents over 10 minutes. The activated biosensors were dipped into wells containing diluted serum albumin (HSA, CSA, MSA) to 10 ug/ml in 10 mM sodium acetate pH 5.0 for 10 minutes before free active sites were quenched using 1M Ethanolamine pH 8.5 over 10 minutes. These were then dipped into 10 mM glycine pH 2.5 to stabilise the surface. […] Anomalous or poorly fitting curves were excluded from the analysis.

[2] = target: T2, Cyno Serum Albumin (CSA) (cynomolgus, UniProt A2V9Z4 25-608); assay: as above
T2 construct: Bought protein; also called cynomolgus serum albumin
Protocol: as §1

[3] = target: mouse serum albumin (MSA) (mouse, UniProt P07724 25-608); assay: BLI (Octet RED384), albumin amine-coupled to AR2G biosensor
mouse serum albumin (MSA), sequence (P07724 25-608 limits assumed): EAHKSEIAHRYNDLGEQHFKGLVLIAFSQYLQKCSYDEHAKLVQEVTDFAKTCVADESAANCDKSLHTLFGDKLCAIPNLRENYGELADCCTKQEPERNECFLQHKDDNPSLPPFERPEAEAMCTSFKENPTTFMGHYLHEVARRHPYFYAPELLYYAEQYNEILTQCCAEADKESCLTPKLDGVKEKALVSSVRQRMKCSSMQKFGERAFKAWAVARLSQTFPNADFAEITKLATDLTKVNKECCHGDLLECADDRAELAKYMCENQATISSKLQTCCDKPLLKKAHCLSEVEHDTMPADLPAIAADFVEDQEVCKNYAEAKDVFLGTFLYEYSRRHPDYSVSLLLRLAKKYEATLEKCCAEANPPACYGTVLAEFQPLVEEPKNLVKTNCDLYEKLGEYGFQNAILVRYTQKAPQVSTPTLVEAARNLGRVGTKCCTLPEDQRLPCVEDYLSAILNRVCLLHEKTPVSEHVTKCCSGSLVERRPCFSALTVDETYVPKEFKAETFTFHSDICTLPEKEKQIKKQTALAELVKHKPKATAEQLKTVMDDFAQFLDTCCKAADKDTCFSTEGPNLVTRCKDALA
Protocol: as §1

[4] = target: T1, Human Serum Albumin (HSA); assay: BIAcore (Affinity), pH5; pH 5
[5] = target: T2, Cyno Serum Albumin (CSA); assay: BIAcore (Affinity), pH5; pH 5
[6] = target: T1, Human Serum Albumin (HSA); assay: BIAcore (Affinity), pH7; pH 7
[7] = target: T2, Cyno Serum Albumin (CSA); assay: BIAcore (Affinity), pH7; pH 7

Kd [1] [nM] | koff [1] [s⁻¹] | kon [1] [M⁻¹ s⁻¹] | Kd [2] [nM] | koff [2] [s⁻¹] | kon [2] [M⁻¹ s⁻¹] | Kd [4] [nM] | koff [4] [s⁻¹] | kon [4] [M⁻¹ s⁻¹] | Kd [5] [nM] | koff [5] [s⁻¹] | kon [5] [M⁻¹ s⁻¹] | Kd [6] [nM] | koff [6] [s⁻¹] | kon [6] [M⁻¹ s⁻¹] | Kd [7] [nM] | koff [7] [s⁻¹] | kon [7] [M⁻¹ s⁻¹] | Binder | binding result [3]
4.83 | 0.00108 | 238000 | 102 | 0.0147 | 144000 |  |  |  |  |  |  |  |  |  |  |  |  | trispecific molecule (SEQ ID NO. 17) including Humabody ® 1 (bispecific antibody, 1 at the C-terminal end; also called trivalent compound; trivalent construct) EVQLVESGGGVVQPGRSLRLSCAASGFSFSGYGMHWVRQAPGKGLEWVAYISYDGSNKYYADSVKGRFTISRDNSKNTLYLQMNSLRAEDTAVYYCAKDPAWGLRLGESSSYDFDIWGQGTMVTVSSGGGGSGGGGSGGGGSGGGGSGGGGSGGGGSEVQLVESGGGLVQPGGSLRLSCAASGFTLSNYWMNWVRQAPGKGLEWVANINQDGSERYYVDSVKGRFTISRDNAKNSLYLQMNSLRAEDTAVYYCARGGEGYGVDHYGLDVSGQGTTVTVSSGGGGSGGGGSGGGGSGGGGSGGGGSGGGGSEVQLVESGGGLVQPGRSLRLSCAASGFTFHHYAMHWVRQAPGKGLEWVSGISWNGNKITYADSVKGRFTISRDNAKNSLYLQMNSLRAEDTALYYCVRDSSLFIVGAPTFEHWGRGTLVTVSSGGGGSGGGGSGGGGSGGGGS | no binding (tested: top concentration 1500 nM)
 |  |  |  |  |  | 13 | 0.00319 | 242000 | 99 | 0.0241 | 244000 | 6 | 0.00162 | 255000 | 67 | 0.0168 | 250000 | Variant of SEQ ID NO. 1 with E111→D and R115→Q (VHH, Human single VH domain) VHH: EVQLVESGGGLVQPGRSLRLSCAASGFTFHHYAMHWVRQAPGKGLEWVSGISWNGNKITYADSVKGRFTISRDNAKNSLYLQMNSLRAEDTALYYCVRDSSLFIVGAPTFDHWGQGTLVTVSS | 
 |  |  |  |  |  | 12 |  |  | 96 |  |  | 3 |  |  | 33 |  |  | Humabody ® 1 (SEQ ID NO. 1) (VHH, Human single VH domain antibody from transgenic mice, not camelid; also called Humabody ® 1 VH; Humabody ® 1-ctag) VHH: EVQLVESGGGLVQPGRSLRLSCAASGFTFHHYAMHWVRQAPGKGLEWVSGISWNGNKITYADSVKGRFTISRDNAKNSLYLQMNSLRAEDTALYYCVRDSSLFIVGAPTFEHWGRGTLVTVSS | 
